Data published in the Human Domainome abundance scans (Beltran et al. 2025).

B1: PMS1 protein homolog 1, residues 572 to 637; numbered along this chain, P54277 (parent)
chain: KKPMSASALFVQDHRPQFLIENPKTSLEDATLQIEELWKTLSEEEKLKYEEKATKDLERYNSQMKR

Variants of: B1
Experiment: abundance fitness (aPCA) (normalised: wild type 0, dead -1); higher = more abundant; growth selection in yeast, the domain comes from the species named
Details: Homo sapiens

Abundance fitness: each site, then its substitutions
E58: H -0.09; A -0.113; D -0.047; M -0.169; Y -0.267; G -0.158; Q -0.005; F -0.321; P -0.257; T -0.155; N -0.307; V -0.108; W -0.456; C -0.18; K -0.043; R -0.025; S -0.099; I -0.179
L57: R -0.058; C -0.084; Q -0.115; P -0.342; T -0.19; F -0.17; K -0.123; H -0.112; S -0.135; M 0.03; W -0.103; E -0.066; D 0.024; I -0.136; V -0.119; Y -0.18; N -0.224; G -0.14
E51: R -0.048; T -0.057; D -0.072; W -0.286; Y -0.513; M -0.132; H -0.131; I -0.127; K -0.156; G -0.237; Q -0.043; F -0.224; C -0.215; L -0.048; N -0.062; V -0.088; A -0.088; S -0.158
K52: R -0.041; W -0.33; L -0.178; S -0.184; V -0.229; M 0.102; I -0.664; T -0.288; G -0.213; P -0.38; Q -0.009; H -0.272; F -0.507; A -0.101; C -0.076; N -0.285; E -0.059; D -0.357; Y -0.302
Y49: T -0.614; L -0.92; H -0.616; K -0.583; G -0.761; N -0.717; M -0.966; C -0.621; P -0.581; R -0.516; D -0.634; S -0.676; Q -0.496; A -0.507; V -0.847; E -0.819; W -0.013
R66: M 0.044; E 0.031; I -0.697; L 0.012; A 0.067; N 0.031; G 0.054; C -0.113; F 0.095; K -0.152; P 0.082; S -0.063
M64: K -0.349; H 0.08; S -0.049; G -0.103; P -0.108; D -0.32; R -0.136; T -0.142; I -0.172; A -0.059; Y 0.035; C -0.205; L -0.133; F -0.095; E -0.195; V 0.015; N -0.144
S62: I -0.249; C 0.12; T -0.227; H 0.021; V -0.078; P -0.148; E -0.035; L -0.071; Y -0.104; R -0.09; A -0.017; F -0.067; K 0.049; W -0.084; M -0.099; D -0.115; Q -0.027; G -0.151; N 0.017
Q63: A 0.071; G -0.093; V -0.113; L -0.109; M -0.109; F -0.036; T -0.072; R -0.178; E -0.038; Y -0.078; D 0.079; P -0.262; I -0.348; C -0.096; K 0.02; H -0.21; S -0.207; N 0.075
K46: F -1.21; M -0.508; H -0.353; R -0.058; Q -0.106; V -0.431; T -0.432; S -0.641; W -1.17; E -1.08; G -0.84
